From US20120171115A1 (AVIPEP, published 2012)

Molecular target: recombinant HER2 ectodomain (human, UniProt P04626 23-652)
Assay: column shift assay: gel filtration monitored at A280, diabody pre-incubated with recombinant HER2 ectodomain
Experimental: Binding activity to soluble antigen was established by a column shift. […] In the column shift assay, at least two times mole excess of soluble antigen to diabody was incubated for 1 hr at ambient temperature. Binding activity was determined by comparing the resulting diabody/antigen complex peak to the free diabody peak. The elution profiles of the diabody or diabody/antigen complex was monitored either directly though absorbance at 280 nm or, in cases where the diabody was Europium labelled, elution fractions were measured in a Victor time-resolved fluorometer using the Europium mode in the Victor multilabel program wizard.

B1: AVP07-17 anti-Her2 diabody (other)
chain: QVQLVQSGAEVKKPGESLKISCKGSGYSFTSYWIAWVRQMPGKGLEYMGLIYPGDSDTKYSPSFQGQVTISVDKSVSTAYLQWSSLKPSDSAVYFCARHDVGYCSSSNCAKWPEYFQHWGQGTLVTVSSGGGGSQSVLTQPPSVSAAPGQKVTISCSGSSSNIGNNYVSWYQQLPGTVPKLLIYGHTNRPAGVPDRFSGSKSGTSASLAISGFRSEDEADYYCAAWDDSLSGWVFGGGTKLTVLGAAAEQKLISEEDLNGAAHHHHHH
notes: Diabody: homodimer of VH-Gly4Ser-VL chains from a human anti-HER2 mAb, with a C-terminal His6 tag from cloning; also called AVP07-17 Avibody
B1: binds.
